Reference: the supplement of paper PMC9732359
± gives the uncertainty stated by the source.

Assay: protein stability index of a GFP-peptide fusion (yeast GPS) (PSI 1-4); higher = more stable; sorted into four equal gates, so the index is relative within each strain
Conditions: pdr5∆
Outline: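 Sequencing reads from sorted gates were used to score each peptide. The library consisted of tiled 17-residue yeast protein peptides fused downstream of GFP on a Cherry-expressing plasmid, pooled and carried in yeast. Mid-log cultures in leucine-free medium were split into four equal gates by GFP/Cherry ratio, and each gate's plasmids were PCR-amplified and Illumina-sequenced. The protein stability index adds up, over all gates, the read frequency multiplied by the gate number.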

Sequence | protein stability index
GMNNASAGLFGSKPAGG [YGL172W/NUP49] | 3.32 ± 0.086
GMYALRERRIHVTQEDF [RPT6] | 1.94 ± 0.054
GNGELYMDCLLYDLRAS [SNU114] | 2.12 ± 0.1

Same assay, conditions: san1∆

Sequence | protein stability index
FPTRLGQGYRKVGIWPY [YJL039C/NUP192] | 2.96 ± 0.12
FPWLNAIKYRPTSVKLL [POP3] | 2.26 ± 0.062
FQAHEITSFLLSKMENV [NAS6] | 1.66 ± 0.094
FQFKLLQSNSKLASTLE [SMC4] | 2.42 ± 0.055
FQHADNSSMRYGYWFDC [AAR2] | 2.15 ± 0.089
FQIPTNLDAAAAGTSQA [RPC10] | 2.65 ± 0.095
FRFQGGIIVAVDSRATA [PRE2] | 1.3 ± 0.12
FRRDFLLREYDILSQIL [YJL039C/NUP192] | 2.08 ± 0.11
FRTVKEMVKDRGYFITQ [RPB5] | 1.72 ± 0.065
FSDKVNALWILVDLVSH [ITC1] | 1.35 ± 0.094
FSFTEPAQKDSSVVSEP [YOR098C/NUP1] | 2.81 ± 0.12
FSKAIEWDMLNVEEEQI [BRR2] | 2.54 ± 0.07
FSKQCLISNAIYGKKTM [ECM29] | 1.63 ± 0.14
FSTNVKDEIVLSGNSVE [RPL9A] | 2.34 ± 0.13
FTDENTIVLSLNVKCTR [RPC40] | 2.96 ± 0.17
FTFGLTVVQVYDNGQVF [RPP0] | 1.36 ± 0.28
FTIQSFVSSLSNTSTLK [BRR2] | 2.01 ± 0.055
FTIVSLVQLKKFSDLKF [YML103C/NUP188] | 2.7 ± 0.1
FTKPPANETDKRPTPPS [YOR098C/NUP1] | 3.14 ± 0.039
FTRPLFVLLEIEPVTKV [YCS4] | 1.95 ± 0.081
FTTLLESKQDGLSILFL [YML103C/NUP188] | 2.56 ± 0.096
FVAKLAAQIFGSYNAFE [COR1] | 1.63 ± 0.081
FVDDTNVYRVTVHKTFE [PRP8] | 2.21 ± 0.096
FVIPALPAAVSKSLQES [RPC82] | 2.58 ± 0.085
FVVPTFGQDVSPMINST [SNM1] | 2.89 ± 0.056

Sequence | protein stability index
FVWLSSEENIGSGLLKL [SWI1] | 3.28 ± 0.067
FYDIRSLLERHIPRLIP [YJL039C/NUP192] | 2.2 ± 0.048
FYVPQARNVTFDSLRNF [GRR1] | 2.52 ± 0.08
GAASNRTKFVRSLVREI [RPL36A] | 3.02 ± 0.13
GAGIQIIMQADLALKMG [FAS2] | 1.73 ± 0.071
GAGSAFGFSSSGTAATG [YOR098C/NUP1] | 3.41 ± 0.17
GAHGYSGFYTFSLLDHH [PRE1] | 2.92 ± 0.098
GAIDEALEEAKLSDNIS [YDL116W/NUP84] | 3.41 ± 0.07
GAKPEEKKDDNSSKPAF [YJL041W/NSP1] | 2.87 ± 0.082
GAKQTQGGAMNKKSEQA [SRP72] | 3.26 ± 0.049
GALKGASDGGLYVPHSE [RPL5] | 2.83 ± 0.088
GCKNGSFTLLNQLSQTN [NUT1] | 2.97 ± 0.095
GDAAPAEEAAAEEEEES [RPP0] | 3.29 ± 0.13
GDFLDFQVHERLAPLIK [ARP7] | 3.42 ± 0.1
GDVGKNHITEFPSIPLP [RPC31] | 3.31 ± 0.079
GEANKHHWEDLQKRVIE [RPN5] | 2.93 ± 0.18
GEDSTKPLGPCDVFWVQ [POP1] | 3.17 ± 0.072
GEKIDSNKPIFLFAPEL [SWI1] | 2.59 ± 0.21
GESEKSSDVDMDDEEWR [RPC53] | 3.35 ± 0.21
GEVMKELSEEKYIVKAS [RPT4] | 3.41 ± 0.043
GEYSVKLLKGATLYIPK [FAS2] | 2.9 ± 0.12
GFGILEDGMIIDVNLNF [RRP40] | 3.19 ± 0.089
GFGLVYNSVAEAKKFEP [RPS24A] | 2.87 ± 0.1
GFINQKNLKPQEQLKNV [YIL149C/MLP2] | 2.77 ± 0.062
GFKWLNKLDEYHGLYTN [LIN1] | 1.88 ± 0.056

Sequence | protein stability index
GFYQIKKIVDSKKLNLK [YMR129W/POM152] | 2.41 ± 0.24
GGFTAYGGADYGEATSP [RPO21] | 1.98 ± 0.099
GGGWDNVDQTKTQCPNY [RPC11] | 3.07 ± 0.078
GGGYFSAAGMTAAIDSV [FAS1] | 3 ± 0.24
GGKAGSAAKASQSRSAK [HTA1] | 2.84 ± 0.069
GGNSTQNTSNMNAGGLF [YGR119C/NUP57] | 3.04 ± 0.055
GGQHHHRINMDKYHPGY [RPL28] | 3.14 ± 0.1
GGSSDTADKIRIHAKNF [GAL11] | 1.42 ± 0.072
GGVPTTSFGQPQSAPNQ [YOR098C/NUP1] | 2.36 ± 0.11
GHRADVGGQFSKVQFDA [REC8] | 3.28 ± 0.059
GHSQFTSHYQNYHPNAS [RPN4] | 2.15 ± 0.09
GIDLAYNMYDAYGNWFN [PRP8] | 3.05 ± 0.058
GIDPTRIYTNSFIDIME [RPO21] | 2.77 ± 0.048
GIFGMDFYVVMNRPGAR [RPL11A] | 2.49 ± 0.058
GIGSLTDLMSIVQELLD [RPC34] | 3.23 ± 0.13
GIKLALDPNLITLALSS [SRB4] | 2.58 ± 0.055
GINSPLSSVALRSDFYI [YJL039C/NUP192] | 2.96 ± 0.14
GIPPPYDKKKRVVVPQA [RPL16B] | 1.99 ± 0.12
GIPTDKGPRFRKLTSQE [PRE8] | 3.01 ± 0.25
GIQEVVHNTNSFIISSL [NUT1] | 2.04 ± 0.087
GITYRREDMPFTAEGIV [RPB2] | 2.39 ± 0.13
GIVLEKLGIESKQPNSA [RPS23A] | 1.92 ± 0.11
GKELDSLDLNNLELGGL [PGD1] | 2.99 ± 0.085
GKGDNDNGLGPLKYAPH [SWI3] | 2.85 ± 0.085
GKGLQSAIDVLDPLTKD [RPN2] | 2.44 ± 0.1

Sequence | protein stability index
GKHSQEQNSSSAKPSQI [SIR4] | 3.02 ± 0.06
GKIDEAADILCELQVET [RPN5] | 3.1 ± 0.061
GKIQENIPFWKHVGFEL [SRP72] | 2.37 ± 0.072
GKLAKPRQLHNTHWGLV [RPB2] | 2.61 ± 0.068
GKMIELISGKAGVLNGT [RET1] | 2.52 ± 0.24
GKTNIALLTVLKALSHH [BRR2] | 2.14 ± 0.069
GKTSFFQALGVPTKIAR [RPP0] | 2.98 ± 0.11
GLFDSFTNGVLAVTNLL [YML031W/NDC1] | 2.75 ± 0.11
GLIMLNLQPASVINNYL [NUT1] | 1.15 ± 0.27
GLKFASFIFQYYGLVID [PRP8] | 1.14 ± 0.27
GLKRSQLDEFKNKYLKD [SWP82] | 2.89 ± 0.12
GLMKSYKIPKVMKDIYK [ESC2] | 2.42 ± 0.26
GLNSDAEEVRNFALTTL [ECM29] | 1.38 ± 0.098
GLNWLISLHENKLSGIL [ISW2] | 2.11 ± 0.082
GLSILFLTGQFASNKKI [YML103C/NUP188] | 2.68 ± 0.079
GLSMLAKLKELAEDVDD [RPC31] | 2.87 ± 0.078
GLSVTQKVFVRSRNGGA [DIS3] | 1.4 ± 0.15
GLVNPKTVQSMTQRAIQ [SWI3] | 2.39 ± 0.14
GMLAMASLHSKELTRIP [MED4] | 2.27 ± 0.2
GMNNASAGLFGSKPAGG [YGL172W/NUP49] | 2.96 ± 0.09
GMVSHKTARGKAALERL [RPL16A] | 3.17 ± 0.13
GMYALRERRIHVTQEDF [RPT6] | 1.59 ± 0.099
